Data taken from patent US20150344570A1 (published 2015).

molecular target: T1, FcγRIa (human, UniProt P12314 16-292); experiment: SPR (Biacore); He Ab relative to HeCon Ab = 100
T1 construct: extracellular domain; also called FcgRI; 1a
Experimental: Analysis of interaction between objective antibody and the FcγR was carried out using Biacore T100 (GE Healthcare). HBS-EP+ (GE Healthcare) was used as the running buffer, and the measurement temperature was set to 25° C. Chips produced by immobilizing the antigen peptide by the amine coupling method to a Series S Sencor Chip CM5 (GE Healthcare), or alternatively, chips produced by allowing preliminarily biotinylated antigen peptides to interact with and immobilize onto a Series S Sensor Chip SA (certified) (GE Healthcare) were used. Antibodies of interest were captured onto an antigen peptide-immobilized chip, and allowed to interact to each FcγR diluted with running buffer. To regenerate and repeatedly use the chip, the antibodies captured on the chip were washed off by reacting 10 mM glycine-HCl, pH 1.5.

T1 sequence (P12314 16-292): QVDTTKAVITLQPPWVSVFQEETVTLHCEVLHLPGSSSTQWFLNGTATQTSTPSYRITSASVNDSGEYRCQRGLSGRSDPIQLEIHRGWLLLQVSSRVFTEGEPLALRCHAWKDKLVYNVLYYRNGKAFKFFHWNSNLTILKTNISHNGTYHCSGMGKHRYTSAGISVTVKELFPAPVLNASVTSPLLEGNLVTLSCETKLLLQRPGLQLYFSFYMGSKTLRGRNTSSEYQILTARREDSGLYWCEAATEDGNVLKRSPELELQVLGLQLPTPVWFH

Binder	He/Con_1a
GpH7-A5/GpH7-B3 variant K334_12R/GpL16-k0 (antibody, human IgG1, kappa, also called He Ab K334_12R) heavy 1: not shown heavy 2: not shown light: DIVMTQSPLSLPVTPGEPASISCQASESLVHSNRNTYLHWYLQKPGQSPQLLIYKVSNRFSGVPDRFSGSGSGTDFTLKISRVEAEDVGVYYCSQNTHVPPTFGQGTKVEIERTVAAPSVFIFPPSDEQLKSGTASVVCLLNNFYPREAKVQWKVDNALQSGNSQESVTEQDSKDSTYSLSSTLTLSKADYEKHKVYACEVTHQGLSSPVTKSFNRGEC	104 % of control
GpH7-A5/GpH7-B3 variant L328_20W/GpL16-k0 (antibody, human IgG1, kappa, also called He Ab L328_20W) heavy 1: not shown heavy 2: not shown light: DIVMTQSPLSLPVTPGEPASISCQASESLVHSNRNTYLHWYLQKPGQSPQLLIYKVSNRFSGVPDRFSGSGSGTDFTLKISRVEAEDVGVYYCSQNTHVPPTFGQGTKVEIERTVAAPSVFIFPPSDEQLKSGTASVVCLLNNFYPREAKVQWKVDNALQSGNSQESVTEQDSKDSTYSLSSTLTLSKADYEKHKVYACEVTHQGLSSPVTKSFNRGEC	103 % of control
GpH7-A5/GpH7-B3 variant P271_02A/GpL16-k0 (antibody, human IgG1, kappa, also called He Ab P271_02A) heavy 1: not shown heavy 2: not shown light: DIVMTQSPLSLPVTPGEPASISCQASESLVHSNRNTYLHWYLQKPGQSPQLLIYKVSNRFSGVPDRFSGSGSGTDFTLKISRVEAEDVGVYYCSQNTHVPPTFGQGTKVEIERTVAAPSVFIFPPSDEQLKSGTASVVCLLNNFYPREAKVQWKVDNALQSGNSQESVTEQDSKDSTYSLSSTLTLSKADYEKHKVYACEVTHQGLSSPVTKSFNRGEC	104 % of control
GpH7-A5/GpH7-B3 variant P271_03V/GpL16-k0 (antibody, human IgG1, kappa, also called He Ab P271_03V) heavy 1: not shown heavy 2: not shown light: DIVMTQSPLSLPVTPGEPASISCQASESLVHSNRNTYLHWYLQKPGQSPQLLIYKVSNRFSGVPDRFSGSGSGTDFTLKISRVEAEDVGVYYCSQNTHVPPTFGQGTKVEIERTVAAPSVFIFPPSDEQLKSGTASVVCLLNNFYPREAKVQWKVDNALQSGNSQESVTEQDSKDSTYSLSSTLTLSKADYEKHKVYACEVTHQGLSSPVTKSFNRGEC	102 % of control
GpH7-A5/GpH7-B3 variant L328_03V/GpL16-k0 (antibody, human IgG1, kappa, also called He Ab L328_03V) heavy 1: not shown heavy 2: not shown light: DIVMTQSPLSLPVTPGEPASISCQASESLVHSNRNTYLHWYLQKPGQSPQLLIYKVSNRFSGVPDRFSGSGSGTDFTLKISRVEAEDVGVYYCSQNTHVPPTFGQGTKVEIERTVAAPSVFIFPPSDEQLKSGTASVVCLLNNFYPREAKVQWKVDNALQSGNSQESVTEQDSKDSTYSLSSTLTLSKADYEKHKVYACEVTHQGLSSPVTKSFNRGEC	101 % of control
GpH7-A5/GpH7-B3 variant K334_20W/GpL16-k0 (antibody, human IgG1, kappa, also called He Ab K334_20W) heavy 1: not shown heavy 2: not shown light: DIVMTQSPLSLPVTPGEPASISCQASESLVHSNRNTYLHWYLQKPGQSPQLLIYKVSNRFSGVPDRFSGSGSGTDFTLKISRVEAEDVGVYYCSQNTHVPPTFGQGTKVEIERTVAAPSVFIFPPSDEQLKSGTASVVCLLNNFYPREAKVQWKVDNALQSGNSQESVTEQDSKDSTYSLSSTLTLSKADYEKHKVYACEVTHQGLSSPVTKSFNRGEC	106 % of control
GpH7-A5/GpH7-B3 variant L234_06M/GpL16-k0 (antibody, human IgG1, kappa, also called He Ab L234_06M) heavy 1: not shown heavy 2: not shown light: DIVMTQSPLSLPVTPGEPASISCQASESLVHSNRNTYLHWYLQKPGQSPQLLIYKVSNRFSGVPDRFSGSGSGTDFTLKISRVEAEDVGVYYCSQNTHVPPTFGQGTKVEIERTVAAPSVFIFPPSDEQLKSGTASVVCLLNNFYPREAKVQWKVDNALQSGNSQESVTEQDSKDSTYSLSSTLTLSKADYEKHKVYACEVTHQGLSSPVTKSFNRGEC	104 % of control
GpH7-A5/GpH7-B3 variant L234_15Y/GpL16-k0 (antibody, human IgG1, kappa, also called He Ab L234_15Y) heavy 1: not shown heavy 2: not shown light: DIVMTQSPLSLPVTPGEPASISCQASESLVHSNRNTYLHWYLQKPGQSPQLLIYKVSNRFSGVPDRFSGSGSGTDFTLKISRVEAEDVGVYYCSQNTHVPPTFGQGTKVEIERTVAAPSVFIFPPSDEQLKSGTASVVCLLNNFYPREAKVQWKVDNALQSGNSQESVTEQDSKDSTYSLSSTLTLSKADYEKHKVYACEVTHQGLSSPVTKSFNRGEC	100 % of control
GpH7-A5/GpH7-B3 variant L328_19Q/GpL16-k0 (antibody, human IgG1, kappa, also called He Ab L328_19Q) heavy 1: not shown heavy 2: not shown light: DIVMTQSPLSLPVTPGEPASISCQASESLVHSNRNTYLHWYLQKPGQSPQLLIYKVSNRFSGVPDRFSGSGSGTDFTLKISRVEAEDVGVYYCSQNTHVPPTFGQGTKVEIERTVAAPSVFIFPPSDEQLKSGTASVVCLLNNFYPREAKVQWKVDNALQSGNSQESVTEQDSKDSTYSLSSTLTLSKADYEKHKVYACEVTHQGLSSPVTKSFNRGEC	101 % of control
GpH7-A5/GpH7-B3 variant L234_03V/GpL16-k0 (antibody, human IgG1, kappa, also called He Ab L234_03V) heavy 1: not shown heavy 2: not shown light: DIVMTQSPLSLPVTPGEPASISCQASESLVHSNRNTYLHWYLQKPGQSPQLLIYKVSNRFSGVPDRFSGSGSGTDFTLKISRVEAEDVGVYYCSQNTHVPPTFGQGTKVEIERTVAAPSVFIFPPSDEQLKSGTASVVCLLNNFYPREAKVQWKVDNALQSGNSQESVTEQDSKDSTYSLSSTLTLSKADYEKHKVYACEVTHQGLSSPVTKSFNRGEC	104 % of control
GpH7-A5/GpH7-B3 variant P238_06M/GpL16-k0 (antibody, human IgG1, kappa, also called He Ab P238_06M) heavy 1: not shown heavy 2: not shown light: DIVMTQSPLSLPVTPGEPASISCQASESLVHSNRNTYLHWYLQKPGQSPQLLIYKVSNRFSGVPDRFSGSGSGTDFTLKISRVEAEDVGVYYCSQNTHVPPTFGQGTKVEIERTVAAPSVFIFPPSDEQLKSGTASVVCLLNNFYPREAKVQWKVDNALQSGNSQESVTEQDSKDSTYSLSSTLTLSKADYEKHKVYACEVTHQGLSSPVTKSFNRGEC	102 % of control
GpH7-A5/GpH7-B3 variant P238_15Y/GpL16-k0 (antibody, human IgG1, kappa, also called He Ab P238_15Y) heavy 1: not shown heavy 2: not shown light: DIVMTQSPLSLPVTPGEPASISCQASESLVHSNRNTYLHWYLQKPGQSPQLLIYKVSNRFSGVPDRFSGSGSGTDFTLKISRVEAEDVGVYYCSQNTHVPPTFGQGTKVEIERTVAAPSVFIFPPSDEQLKSGTASVVCLLNNFYPREAKVQWKVDNALQSGNSQESVTEQDSKDSTYSLSSTLTLSKADYEKHKVYACEVTHQGLSSPVTKSFNRGEC	101 % of control
GpH7-A5/GpH7-B3 variant L234_07I/GpL16-k0 (antibody, human IgG1, kappa, also called He Ab L234_07I) heavy 1: not shown heavy 2: not shown light: DIVMTQSPLSLPVTPGEPASISCQASESLVHSNRNTYLHWYLQKPGQSPQLLIYKVSNRFSGVPDRFSGSGSGTDFTLKISRVEAEDVGVYYCSQNTHVPPTFGQGTKVEIERTVAAPSVFIFPPSDEQLKSGTASVVCLLNNFYPREAKVQWKVDNALQSGNSQESVTEQDSKDSTYSLSSTLTLSKADYEKHKVYACEVTHQGLSSPVTKSFNRGEC	103 % of control
GpH7-A5/GpH7-B3 variant P238_04F/GpL16-k0 (antibody, human IgG1, kappa, also called He Ab P238_04F) heavy 1: not shown heavy 2: not shown light: DIVMTQSPLSLPVTPGEPASISCQASESLVHSNRNTYLHWYLQKPGQSPQLLIYKVSNRFSGVPDRFSGSGSGTDFTLKISRVEAEDVGVYYCSQNTHVPPTFGQGTKVEIERTVAAPSVFIFPPSDEQLKSGTASVVCLLNNFYPREAKVQWKVDNALQSGNSQESVTEQDSKDSTYSLSSTLTLSKADYEKHKVYACEVTHQGLSSPVTKSFNRGEC	101 % of control
GpH7-A5/GpH7-B3 variant L328_14T/GpL16-k0 (antibody, human IgG1, kappa, also called He Ab L328_14T) heavy 1: not shown heavy 2: not shown light: DIVMTQSPLSLPVTPGEPASISCQASESLVHSNRNTYLHWYLQKPGQSPQLLIYKVSNRFSGVPDRFSGSGSGTDFTLKISRVEAEDVGVYYCSQNTHVPPTFGQGTKVEIERTVAAPSVFIFPPSDEQLKSGTASVVCLLNNFYPREAKVQWKVDNALQSGNSQESVTEQDSKDSTYSLSSTLTLSKADYEKHKVYACEVTHQGLSSPVTKSFNRGEC	100 % of control
GpH7-A5/GpH7-B3 variant P238_03V/GpL16-k0 (antibody, human IgG1, kappa, also called He Ab P238_03V) heavy 1: not shown heavy 2: not shown light: DIVMTQSPLSLPVTPGEPASISCQASESLVHSNRNTYLHWYLQKPGQSPQLLIYKVSNRFSGVPDRFSGSGSGTDFTLKISRVEAEDVGVYYCSQNTHVPPTFGQGTKVEIERTVAAPSVFIFPPSDEQLKSGTASVVCLLNNFYPREAKVQWKVDNALQSGNSQESVTEQDSKDSTYSLSSTLTLSKADYEKHKVYACEVTHQGLSSPVTKSFNRGEC	100 % of control
GpH7-A5/GpH7-B3 variant P238_08L/GpL16-k0 (antibody, human IgG1, kappa, also called He Ab P238_08L) heavy 1: not shown heavy 2: not shown light: DIVMTQSPLSLPVTPGEPASISCQASESLVHSNRNTYLHWYLQKPGQSPQLLIYKVSNRFSGVPDRFSGSGSGTDFTLKISRVEAEDVGVYYCSQNTHVPPTFGQGTKVEIERTVAAPSVFIFPPSDEQLKSGTASVVCLLNNFYPREAKVQWKVDNALQSGNSQESVTEQDSKDSTYSLSSTLTLSKADYEKHKVYACEVTHQGLSSPVTKSFNRGEC	101 % of control
GpH7-A5/GpH7-B3 variant L328_10E/GpL16-k0 (antibody, human IgG1, kappa, also called He Ab L328_10E) heavy 1: not shown heavy 2: not shown light: DIVMTQSPLSLPVTPGEPASISCQASESLVHSNRNTYLHWYLQKPGQSPQLLIYKVSNRFSGVPDRFSGSGSGTDFTLKISRVEAEDVGVYYCSQNTHVPPTFGQGTKVEIERTVAAPSVFIFPPSDEQLKSGTASVVCLLNNFYPREAKVQWKVDNALQSGNSQESVTEQDSKDSTYSLSSTLTLSKADYEKHKVYACEVTHQGLSSPVTKSFNRGEC	101 % of control
GpH7-A5/GpH7-B3 variant L234_10E/GpL16-k0 (antibody, human IgG1, kappa, also called He Ab L234_10E) heavy 1: not shown heavy 2: not shown light: DIVMTQSPLSLPVTPGEPASISCQASESLVHSNRNTYLHWYLQKPGQSPQLLIYKVSNRFSGVPDRFSGSGSGTDFTLKISRVEAEDVGVYYCSQNTHVPPTFGQGTKVEIERTVAAPSVFIFPPSDEQLKSGTASVVCLLNNFYPREAKVQWKVDNALQSGNSQESVTEQDSKDSTYSLSSTLTLSKADYEKHKVYACEVTHQGLSSPVTKSFNRGEC	100 % of control
GpH7-A5/GpH7-B3 variant P238_10E/GpL16-k0 (antibody, human IgG1, kappa, also called He Ab P238_10E) heavy 1: not shown heavy 2: not shown light: DIVMTQSPLSLPVTPGEPASISCQASESLVHSNRNTYLHWYLQKPGQSPQLLIYKVSNRFSGVPDRFSGSGSGTDFTLKISRVEAEDVGVYYCSQNTHVPPTFGQGTKVEIERTVAAPSVFIFPPSDEQLKSGTASVVCLLNNFYPREAKVQWKVDNALQSGNSQESVTEQDSKDSTYSLSSTLTLSKADYEKHKVYACEVTHQGLSSPVTKSFNRGEC	102 % of control
GpH7-A5/GpH7-B3 variant L234_04F/GpL16-k0 (antibody, human IgG1, kappa, also called He Ab L234_04F) heavy 1: not shown heavy 2: not shown light: DIVMTQSPLSLPVTPGEPASISCQASESLVHSNRNTYLHWYLQKPGQSPQLLIYKVSNRFSGVPDRFSGSGSGTDFTLKISRVEAEDVGVYYCSQNTHVPPTFGQGTKVEIERTVAAPSVFIFPPSDEQLKSGTASVVCLLNNFYPREAKVQWKVDNALQSGNSQESVTEQDSKDSTYSLSSTLTLSKADYEKHKVYACEVTHQGLSSPVTKSFNRGEC	101 % of control
